In patent US20170369592A1, “NOVEL ANTI-FIBROBLAST ACTIVATION PROTEIN (FAP) ANTIBODIES AND USES DERIVED THEREOF” (Mabimmune Diagnostics AG, priority 2015, published 2017):
Each block holds one molecule with its values, some of them ahead of it.

Columns and labels:
[1] = system: metastatic colorectal cancer; details: unconjugated antibody, early phase II trial; cited from earlier work
FAP = biological target: T1, FAP (Homo sapiens, UniProt Q12884); details: cited from earlier work
T1 sequence (Q12884 1-760): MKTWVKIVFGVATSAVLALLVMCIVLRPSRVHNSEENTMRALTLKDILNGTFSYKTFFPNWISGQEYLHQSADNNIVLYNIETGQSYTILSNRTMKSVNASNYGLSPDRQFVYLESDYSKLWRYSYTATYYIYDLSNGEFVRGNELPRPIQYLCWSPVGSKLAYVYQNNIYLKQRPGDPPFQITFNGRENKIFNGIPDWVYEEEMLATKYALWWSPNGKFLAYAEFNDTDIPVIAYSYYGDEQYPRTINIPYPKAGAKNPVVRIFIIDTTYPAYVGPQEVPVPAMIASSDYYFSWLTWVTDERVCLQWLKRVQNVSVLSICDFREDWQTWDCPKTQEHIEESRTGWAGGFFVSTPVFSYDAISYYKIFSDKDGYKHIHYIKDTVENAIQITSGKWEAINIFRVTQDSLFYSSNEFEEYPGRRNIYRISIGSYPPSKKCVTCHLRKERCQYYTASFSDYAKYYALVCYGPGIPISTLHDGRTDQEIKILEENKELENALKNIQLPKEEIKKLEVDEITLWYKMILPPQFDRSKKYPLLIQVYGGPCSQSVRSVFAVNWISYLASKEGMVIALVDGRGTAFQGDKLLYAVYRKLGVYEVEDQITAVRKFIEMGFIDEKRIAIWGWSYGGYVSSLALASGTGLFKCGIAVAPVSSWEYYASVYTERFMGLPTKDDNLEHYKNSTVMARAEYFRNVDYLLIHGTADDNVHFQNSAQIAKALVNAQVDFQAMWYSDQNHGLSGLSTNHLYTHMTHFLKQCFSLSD

[2] = human, in vivo; cited from earlier work
captured FAP (sFAP) = biological target: T2, captured FAP (sFAP) (Homo sapiens, UniProt Q12884); test: Capture ELISA, FAP captured via his-tag with coated anti-His antibody; assay type: binding; details: non-linear regression
T2 sequence (Q12884 1-760): T1 sequence (Q12884 1-760)
Protocol: (§1) ELISA assays were performed with varying antibody concentrations to validate the binding of the exemplary antibodies of the present invention to FAP and to be able to determine their half maximal effective concentration (EC50). For the exemplary recombinant human NI-206.82C2, NI-206.59B4, NI-206.22F7, NI-206.27E8, NI-206.12G4 and NI-206.17A6 antibodies, 96-well microplates (Costar, Corning, USA) were coated with FAP, with a mixture of the 3 peptides or with BSA (Sigma-Aldrich, Buchs, Switzerland) diluted to a concentration of 5 μg/ml in carbonate ELISA coating buffer (15 mM Na2CO3, 35 mM NaHCO3, pH 9.4) for the direct ELISA. For the capture ELISA, the microplates were coated with mouse anti-His monoclonal antibody (Clontech) diluted to a concentration of 3 μg/ml in PBS, the plates were then blocked, FAP or BSA were diluted to a concentration of 2 μg/ml in PBS and added to the plates to be captured. The binding efficiency of the antibodies was then tested. The exemplary NI-206.82C2 antibody specifically and strongly binds to the captured FAP and less efficiently to the directly coated FAP. The exemplary NI-206.59B4 antibody specifically, strongly and similarly binds to the captured FAP and to the directly coated FAP.
(§2) The EC50 values were estimated by a non-linear regression using GraphPad Prism (San Diego, USA) software. […] The binding of NI-206.12G4 towards sFAP was not tested.

[3] = biological target: T3, directly coated FAP (FAP) (Homo sapiens, UniProt Q12884); test: Direct ELISA, FAP directly coated; assay type: binding; details: non-linear regression
T3 sequence (Q12884 1-760): T1 sequence (Q12884 1-760)
Protocol: as §1, §2

Molecule: Sibrotuzumab: a humanized version of the F19 antibody that specifically binds to human FAP
- efficacy in inhibiting tumor progression [1]: lack of efficacy
- inhibition of FAP (FAP): not inhibitory
- patients with a change in pharmacokinetics and reduced tumor uptake [2]: 4 of 26

- EC50, binding to captured FAP (sFAP) (captured FAP (sFAP)): did not show any binding
- EC50, binding to directly coated FAP (FAP) [3]: did not show any binding
B1: NI-206.22F7: recombinant human-derived monoclonal anti-FAP antibody, variable regions in FIG. 1 (antibody, V domains shown)
VH: EVQLVETGGGVVQPGRSLRLSCAASGFSFSTHGMYWVRQPPGKGLEWVAVISYDGSDKKYADSVKGRFTISRDNSKNTVYLEMSSVRAEDTALYYCFCRRDAFDLWGQGTMVTVSS
VL: SYVLTQPPSVSVSPGQTARITCSGDALPKKYAYWYQQKSGQAPVLVIYEDTKRPSGIPERFSGSSSGTMATLTISGAQVEDEADYYCYSTDSSGNYWVFGGGTEVTVL
